From patent US9029508 (dated 2015) come the findings set out here.

The term EC50 denotes the concentration giving half of the maximal effect. Low values mean higher potency in that assay, high ones lower potency in that assay.

First the molecules themselves.
T1: VEGF (human, UniProt P15692)
T1 chain: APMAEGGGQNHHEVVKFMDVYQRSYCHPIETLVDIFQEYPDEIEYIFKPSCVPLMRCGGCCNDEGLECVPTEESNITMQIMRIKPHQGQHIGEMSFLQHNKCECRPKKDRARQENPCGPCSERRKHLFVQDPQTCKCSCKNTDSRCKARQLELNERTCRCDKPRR

B1: DVD495 DLL4 arm (antibody, V domains shown)
VH: EVQLQQSGPELVKPGASVKMSCKASGYTFTSYVINWVKQKPGQGLEWIGLINPYNDGTKYNEKFKVKATLTSDKSSSTAYMELSSLTSEDSAVYYCASYYYGSRYYFDYWGQGTTLTVSS
VL: DIQMTQSSSYLSVSLGGRVTITCKASDHINNWLAWYQQKPGNAPRLLISGATSLETGVPSRFSGSGSGKDYTLSITSLQTEDVATYYCQQYWSIPLTFGAGTKLELKR
modifications: DVD-Ig outer
B2: DVD507 DLL4 arm (antibody, V domains shown)
VH: EVQLQQSGPELVKPGASVKMSCKASGYTFTSYVINWVKQKPGQGLEWIGLINPYNDGTKYNEKFKVKATLTSDKSSSTAYMELSSLTSEDSAVYYCASYYYGSRYYFDYWGQGTTLTVSS
VL: DIQMTQSSSYLSVSLGGRVTITCKASDHINNWLAWYQQKPGNAPRLLISGATSLETGVPSRFSGSGSGKDYTLSITSLQTEDVATYYCQQYWSIPLTFGAGTKLELKR
modifications: DVD-Ig outer
B3: DVD500 DLL4 arm (antibody, V domains shown)
VH: EVQLQQSGPELVKPGASVKMSCKASGYTFTSYVINWVKQKPGQGLEWIGLINPYNDGTKYNEKFKVKATLTSDKSSSTAYMELSSLTSEDSAVYYCASYYYGSRYYFDYWGQGTTLTVSS
VL: DIQMTQSSSYLSVSLGGRVTITCKASDHINNWLAWYQQKPGNAPRLLISGATSLETGVPSRFSGSGSGKDYTLSITSLQTEDVATYYCQQYWSIPLTFGAGTKLELKR
modifications: DVD-Ig inner
B4: DVD473 DLL4 arm (antibody)
chain 1: EVQLVESGGGLVQPGGSLRLSCAASGFTFTDNWISWVRQAPGKGLEWVGYISPNSGFTYYADSVKGRFTISADTSKNTAYLQMNSLRAEDTAVYYCARDNFGGYFDYWGQGTLVTVSS
chain 2: DIQMTQSPSSLSASVGDRVTITCRASQDVSTAVAWYQQKPGKAPKLLIYSASFLYSGVPSRFSGSGSGTDFTLTISSLQPEDFATTYYCQQSYTGTVTFGQGTKVEIKR
modifications: DVD-Ig outer
B5: DVD475 DLL4 arm (antibody)
chain 1: EVQLVESGGGLVQPGGSLRLSCAASGFTFTDNWISWVRQAPGKGLEWVGYISPNSGFTYYADSVKGRFTISADTSKNTAYLQMNSLRAEDTAVYYCARDNFGGYFDYWGQGTLVTVSS
chain 2: DIQMTQSPSSLSASVGDRVTITCRASQDVSTAVAWYQQKPGKAPKLLIYSASFLYSGVPSRFSGSGSGTDFTLTISSLQPEDFATTYYCQQSYTGTVTFGQGTKVEIKR
modifications: DVD-Ig outer
B6: DVD482 DLL4 arm (antibody)
chain 1: EVQLVESGGGLVQPGGSLRLSCAASGFTFTDNWISWVRQAPGKGLEWVGYISPNSGFTYYADSVKGRFTISADTSKNTAYLQMNSLRAEDTAVYYCARDNFGGYFDYWGQGTLVTVSS
chain 2: DIQMTQSPSSLSASVGDRVTITCRASQDVSTAVAWYQQKPGKAPKLLIYSASFLYSGVPSRFSGSGSGTDFTLTISSLQPEDFATTYYCQQSYTGTVTFGQGTKVEIKR
modifications: DVD-Ig inner
B7: DVD472 DLL4 arm (antibody)
chain 1: EVQLVESGGGLVQPGGSLRLSCAASGFTFTDNWISWVRQAPGKGLEWVGYISPNSGFTYYADSVKGRFTISADTSKNTAYLQMNSLRAEDTAVYYCARDNFGGYFDYWGQGTLVTVSS
chain 2: DIQMTQSPSSLSASVGDRVTITCRASQDVSTAVAWYQQKPGKAPKLLIYSASFLYSGVPSRFSGSGSGTDFTLTISSLQPEDFATTYYCQQSYTGTVTFGQGTKVEIKR
modifications: DVD-Ig inner
B8: DVD474 DLL4 arm (antibody)
chain 1: EVQLVESGGGLVQPGGSLRLSCAASGFTFTDNWISWVRQAPGKGLEWVGYISPNSGFTYYADSVKGRFTISADTSKNTAYLQMNSLRAEDTAVYYCARDNFGGYFDYWGQGTLVTVSS
chain 2: DIQMTQSPSSLSASVGDRVTITCRASQDVSTAVAWYQQKPGKAPKLLIYSASFLYSGVPSRFSGSGSGTDFTLTISSLQPEDFATTYYCQQSYTGTVTFGQGTKVEIKR
modifications: DVD-Ig inner
B9: DVD446 DLL4 arm (antibody, V domains shown)
VH: QVQLVQSGAEVKKPGASVKISCKASGYSFTAYYIHWVKQAPGQGLEWIGYISSYNGATNYNQKFKGRVTFTTDTSTSTAYMELRSLRSDDTAVYYCARDYDYDVGMDYWGQGTLVTVSS
VL: DIVMTQSPDSLAVSLGERATISCRASESVDNYGISFMKWFQQKPGQPPKLLIYAASNQGSGVPDRFSGSGSGTDFTLTISSLQAEDVAVYYCQQSKEVPWTFGGGTKVEIKR
modifications: DVD-Ig inner
B10: DVD463 DLL4 arm (antibody, V domains shown)
VH: QVQLVQSGAEVKKPGASVKISCKASGYSFTAYYIHWVKQAPGQGLEWIGYISSYNGATNYNQKFKGRVTFTTDTSTSTAYMELRSLRSDDTAVYYCARDYDYDVGMDYWGQGTLVTVSS
VL: DIVMTQSPDSLAVSLGERATISCRASESVDNYGISFMKWFQQKPGQPPKLLIYAASNQGSGVPDRFSGSGSGTDFTLTISSLQAEDVAVYYCQQSKEVPWTFGGGTKVEIKR
modifications: DVD-Ig outer
B11: DVD459 DLL4 arm (antibody, V domains shown)
VH: QVQLVQSGAEVKKPGASVKISCKASGYSFTAYYIHWVKQAPGQGLEWIGYISSYNGATNYNQKFKGRVTFTTDTSTSTAYMELRSLRSDDTAVYYCARDYDYDVGMDYWGQGTLVTVSS
VL: DIVMTQSPDSLAVSLGERATISCRASESVDNYGISFMKWFQQKPGQPPKLLIYAASNQGSGVPDRFSGSGSGTDFTLTISSLQAEDVAVYYCQQSKEVPWTFGGGTKVEIKR
modifications: DVD-Ig outer
B12: DVD448 DLL4 arm (antibody, V domains shown)
VH: QVQLVQSGAEVKKPGASVKISCKASGYSFTAYYIHWVKQAPGQGLEWIGYISSYNGATNYNQKFKGRVTFTTDTSTSTAYMELRSLRSDDTAVYYCARDYDYDVGMDYWGQGTLVTVSS
VL: DIVMTQSPDSLAVSLGERATISCRASESVDNYGISFMKWFQQKPGQPPKLLIYAASNQGSGVPDRFSGSGSGTDFTLTISSLQAEDVAVYYCQQSKEVPWTFGGGTKVEIKR
modifications: DVD-Ig inner
B13: DVD522 DLL4 arm (antibody, V domains shown)
VH: EVQLQQSGPELEKPGASVKISCKASGYSFTGYNMNWVKQSNGKSLEWIGNIDPYFGGTNYNQKFKGKATLTVDKSSSTAYMQLKSLTSEDSAVYYCARNYDYDGGCFDYWGQGTTLTVSS
VL: QAVVTQESALTTSPGETVTLTCRSSTGAVTTSNYANWVQEKPDHLFTGLIGGTNNRAPGVPARFSGSLIGDKAALTITGAQTEDEAIYFCALWYSNHWVFGGGTKLTVLG
modifications: DVD-Ig inner
B14: DVD513 DLL4 arm (antibody, V domains shown)
VH: EVQLQQSGPELEKPGASVKISCKASGYSFTGYNMNWVKQSNGKSLEWIGNIDPYFGGTNYNQKFKGKATLTVDKSSSTAYMQLKSLTSEDSAVYYCARNYDYDGGCFDYWGQGTTLTVSS
VL: QAVVTQESALTTSPGETVTLTCRSSTGAVTTSNYANWVQEKPDHLFTGLIGGTNNRAPGVPARFSGSLIGDKAALTITGAQTEDEAIYFCALWYSNHWVFGGGTKLTVLG
modifications: DVD-Ig outer
B15: DVD527 DLL4 arm (antibody, V domains shown)
VH: EVQLQQSGPELEKPGASVKISCKASGYSFTGYNMNWVKQSNGKSLEWIGNIDPYFGGTNYNQKFKGKATLTVDKSSSTAYMQLKSLTSEDSAVYYCARNYDYDGGCFDYWGQGTTLTVSS
VL: QAVVTQESALTTSPGETVTLTCRSSTGAVTTSNYANWVQEKPDHLFTGLIGGTNNRAPGVPARFSGSLIGDKAALTITGAQTEDEAIYFCALWYSNHWVFGGGTKLTVLG
modifications: DVD-Ig outer
B16: DVD463 VEGF arm (antibody, V domains shown)
VH: EVQLVESGGGLVQPGGSLRLSCAASGFTINASWIHWVRQAPGKGLEWVGAIYPYSGYTNYADSVKGRFTISADTSKNTAYLQMNSLRAEDTAVYYCARWGHSTSPWAMDYWGQGTLVTVSS
VL: DIQMTQSPSSLSASVGDRVTITCRASQVIRRSLAWYQQKPGKAPKLLIYAASNLASGVPSRFSGSGSGTDFTLTISSLQPEDFATYYCQQSNTSPLTFGQGTKVEIKR
B17: DVD485 VEGF arm (antibody, V domains shown)
VH: EVQLVESGGGLVQPGGSLRLSCAASGFTINASWIHWVRQAPGKGLEWVGAIYPYSGYTNYADSVKGRFTISADTSKNTAYLQMNSLRAEDTAVYYCARWGHSTSPWAMDYWGQGTLVTVSS
VL: DIQMTQSPSSLSASVGDRVTITCRASQVIRRSLAWYQQKPGKAPKLLIYAASNLASGVPSRFSGSGSGTDFTLTISSLQPEDFATYYCQQSNTSPLTFGQGTKVEIKR
B18: DVD515 VEGF arm (antibody, V domains shown)
VH: EVQLVESGGGLVQPGGSLRLSCAASGFTINASWIHWVRQAPGKGLEWVGAIYPYSGYTNYADSVKGRFTISADTSKNTAYLQMNSLRAEDTAVYYCARWGHSTSPWAMDYWGQGTLVTVSS
VL: DIQMTQSPSSLSASVGDRVTITCRASQVIRRSLAWYQQKPGKAPKLLIYAASNLASGVPSRFSGSGSGTDFTLTISSLQPEDFATYYCQQSNTSPLTFGQGTKVEIKR
B19: DVD528 VEGF arm (antibody, V domains shown)
VH: EVQLVESGGGLVQPGGSLRLSCAASGFTINASWIHWVRQAPGKGLEWVGAIYPYSGYTNYADSVKGRFTISADTSKNTAYLQMNSLRAEDTAVYYCARWGHSTSPWAMDYWGQGTLVTVSS
VL: DIQMTQSPSSLSASVGDRVTITCRASQVIRRSLAWYQQKPGKAPKLLIYAASNLASGVPSRFSGSGSGTDFTLTISSLQPEDFATYYCQQSNTSPLTFGQGTKVEIKR
B20: DVD491 VEGF arm (antibody, V domains shown)
VH: EVQLVESGGGLVQPGGSLRLSCAASGFTINASWIHWVRQAPGKGLEWVGAIYPYSGYTNYADSVKGRFTISADTSKNTAYLQMNSLRAEDTAVYYCARWGHSTSPWAMDYWGQGTLVTVSS
VL: DIQMTQSPSSLSASVGDRVTITCRASQVIRRSLAWYQQKPGKAPKLLIYAASNLASGVPSRFSGSGSGTDFTLTISSLQPEDFATYYCQQSNTSPLTFGQGTKVEIKR
B21: DVD457 VEGF arm (antibody, V domains shown)
VH: EVQLVESGGGLVQPGGSLRLSCAASGFTINASWIHWVRQAPGKGLEWVGAIYPYSGYTNYADSVKGRFTISADTSKNTAYLQMNSLRAEDTAVYYCARWGHSTSPWAMDYWGQGTLVTVSS
VL: DIQMTQSPSSLSASVGDRVTITCRASQVIRRSLAWYQQKPGKAPKLLIYAASNLASGVPSRFSGSGSGTDFTLTISSLQPEDFATYYCQQSNTSPLTFGQGTKVEIKR

For one experiment, the target named is DLL4 (human, UniProt Q9NR61). In words: ELISA.
Chain of DLL4 (Q9NR61 27-524): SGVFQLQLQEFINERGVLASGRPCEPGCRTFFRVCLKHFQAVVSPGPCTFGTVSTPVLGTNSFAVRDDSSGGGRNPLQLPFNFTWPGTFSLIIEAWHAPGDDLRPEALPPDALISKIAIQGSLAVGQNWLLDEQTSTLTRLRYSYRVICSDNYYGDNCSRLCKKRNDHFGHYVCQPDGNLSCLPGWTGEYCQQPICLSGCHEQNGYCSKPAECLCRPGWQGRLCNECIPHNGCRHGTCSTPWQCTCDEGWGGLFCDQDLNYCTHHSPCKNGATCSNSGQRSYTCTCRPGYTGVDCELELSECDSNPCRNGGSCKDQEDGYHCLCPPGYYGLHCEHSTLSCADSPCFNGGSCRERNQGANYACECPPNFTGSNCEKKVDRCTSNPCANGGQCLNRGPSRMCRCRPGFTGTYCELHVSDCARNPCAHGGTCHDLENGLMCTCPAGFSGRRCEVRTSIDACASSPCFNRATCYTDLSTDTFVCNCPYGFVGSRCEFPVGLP
As to B1, the concentration giving a half-maximal response (EC50) came to 0.33 nM.

As to B2, the midpoint of the response, the EC50, lay at 0.71 nM. Against the preceding molecule, the EC50 is about 2.2-fold higher.

In turn, B3 yielded a 50% effective concentration (EC50) of 0.57 nM. This EC50 and that of the molecule before are within 1.5-fold of each other.

The molecule B4 showed an EC50 of 1.8 nM.

Turning to B5, the half-maximal effective concentration (EC50) was determined as 0.23 nM.

The molecule B6 gave a 50% effective concentration (EC50) of 0.36 nM.

In turn, B7 returned a concentration for a half-maximal effect (EC50) of 2.78 nM.

As to B8, the 50% effective concentration (EC50) is 0.57 nM.

As to B9, the response was half-maximal at 13.9 nM (EC50).

For the molecule B10, the concentration giving a half-maximal response (EC50) is 0.5 nM.

The molecule B11 yielded an EC50 of 0.26 nM. Against the preceding molecule, the EC50 is about 1.9-fold lower.

For the molecule B12, the 50% effective concentration (EC50) turned out to be 0.41 nM. Against the preceding molecule, the EC50 is about 1.6-fold higher.

B13: a half-maximal effect (EC50) was put at 0.48 nM.

Regarding B14, a half-maximal effect (EC50) was put at 0.66 nM.

The molecule B15 had an EC50 of 0.2 nM. This EC50 lies about 3.3-fold lower than the previous one.

A further experiment has as its target T1, VEGF. In words: ELISA. A general note: ELISA stands for enzyme-linked immunosorbent assay.
B16: a half-maximal response (EC50) required 1730 nM.

For the molecule B17, the half-maximal effective concentration (EC50) worked out at 121 nM.

On to B18, for which the EC50 worked out at 3020 nM.

The molecule B19 yielded a half-maximal effective concentration (EC50) of 27.7 nM. This EC50 lies about 110-fold lower than the previous one.

As for B20, the EC50 was 1250 nM. Against the preceding molecule, the EC50 is about 45-fold higher.

As for B21, a half-maximal effect (EC50) was put at 1480 nM. This EC50 and that of the molecule before are within 1.5-fold of each other.
